From patent US20050154187A1 come the findings set out here.

Assay [1] has as its target soluble VEGF receptor KDR (sKDR) (UniProt P35968). The assay can be described thus: ELISA, plate-coated sKDR, detection with DHFR-specific mAb.
For assay [2], the target named is soluble VEGF receptor Flt-1 (sFlt-1) (UniProt P17948). Nature of the assay: ELISA, plate-coated sFlt-1, detection with DHFR-specific mAb.

Chain of dihydrofolate reductase (DHFR), negative control protein (P00375 1-186 limits assumed): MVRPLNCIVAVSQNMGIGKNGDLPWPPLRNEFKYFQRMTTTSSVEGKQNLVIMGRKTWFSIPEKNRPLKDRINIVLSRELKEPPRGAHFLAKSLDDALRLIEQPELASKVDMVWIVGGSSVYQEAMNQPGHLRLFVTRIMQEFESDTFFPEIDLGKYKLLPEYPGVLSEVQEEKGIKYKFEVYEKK

With “dihydrofolate reductase (DHFR), negative control protein (from UniProt P00375 1-186) (enzyme)”, the figures for the OD492 nm in assay [1] and in assay [2] were 0.074 OD492 nm and 0.088 OD492 nm, respectively.
